The results in this text go back to paper PMC9696605 (Viruses, 2022).

As usually defined, the Kd is the free concentration of one partner at which half of the binding sites on the other are occupied at equilibrium, for simple one-to-one binding.

Where no end group is shown, it is not given here. [ ]: non-standard residue; d: D form. pT = C[C@@H](OP(=O)(O)O)[C@H](N)C(=O)O

Assay [1] has as its target T1, SH3 domain of human Fyn (Fyn-SH3), 15N-labelled (human, UniProt P06241 82-142).
T1 construct: also called 15N-Fyn-SH3
Put plainly: NMR titration. The conditions noted are these: both partners purified.

Assay [2] concerns the target human neural precursor cell expressed developmentally down-regulated protein 4-like WW3* domain (hNedd4L-WW3*) (human, UniProt Q96PU5 497-530). The assay can be described thus: ITC. The note with it: both partners purified.

T1 sequence (P06241 82-142): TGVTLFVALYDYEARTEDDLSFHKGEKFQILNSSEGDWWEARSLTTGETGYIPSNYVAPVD
human neural precursor cell expressed developmentally down-regulated protein 4-like WW3* domain (hNedd4L-WW3*), sequence (Q96PU5 497-530): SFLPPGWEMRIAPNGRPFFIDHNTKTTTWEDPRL

B1: pU24-6B(1-15), U24-6B peptide with phospho-threonine 6 (peptide)
peptide: MDRPR[pT]PPPSYSEVL
notes: source: synthetic peptide, bought: Genscript
In assay [1], B1 came in with a Kd of no less than 5000 µM.

B2: U24-6B(1-15), 15-residue peptide of the N-terminal region of U24 from HHV-6B (peptide)
peptide: MDRPRTPPPSYSEVL
notes: source: synthetic peptide (Fmoc solid phase, C18 HPLC purified)
As for B2, the Kd in assay [2] was determined as 8.9 µM; in assay [1], 500 ± 200 µM.

B3: U24-6A(1-15), 15-residue peptide of the N-terminal region of U24 from HHV-6A (peptide)
peptide: MDPPRTPPPSYSEVL
notes: as for B2
For the molecule B3, in assay [2], the Kd turned out to be 8.5 µM.

B4: pU24-6A(1-15), U24-6A peptide with phospho-threonine 6 (peptide)
peptide: MDPPR[pT]PPPSYSEVL
notes: as for B1
In the case of B4, the Kd in assay [1] was no less than 12000 µM.
